# Substrate: COc1cc(/C=C/CO)ccc1O
# Assay: Kinetic characterisation of purified tobacco CAD enzyme
# Format: biochemical
# Conditions: other: pure enzyme purified to homogeneity from tobacco stems; specific for NADP; pH 7.5
# Method: Six week old tobacco stems were frozen in liquid N, crushed with a hammer and homogenized in a Waring blender in buffer A. The homogenate was centrifuged at 45000×g for 30 min. Solid ammonium sulphate was added to the supernatant to bring it to 70% saturation and proteins were precipitated at 4° C. for 30 min. The precipitate was collected by centrifugation at 10,000 rpm for 1 hour. The pellet was resuspended in a minimum volume of buffer supplemented with 5% ethylene glycol, to reduce the ammonium sulphate concentration to approximately 40% saturation.
# The supernatant was desalted and applied to a Blue Sepharose column. The column was washed in at least 6 column volumes buffer including one column volume supplemented with 4 mM NAD. This wash elutes other alcohol dehydrogenases. Specific elution of CAD was performed with a gradient of 0-4 mM NADP in buffer B. CAD-containing fractions were pooled and 5% ethylene glycol was added.
# The pooled fractions from Blue Sepharose were applied to an FPLC Mono Q column. The column was washed until the Absorbance dropped to baseline levels. Proteins were eluted in a linear gradient of buffer with 20-400 mM Tris-HCl, pH 7.5.
# MonoQ fractions were applied to a column of 2'5'ADP-Sepharose. The column was washed with 6 column volumes buffer including one column volume supplemented with 4 mM NAD. […]
protein,measurement,value
"tobacco cinnamyl alcohol dehydrogenase (CAD, E.C. 1.1.1.195), purified from tobacco stems (Nicotiana tabacum) (protein, Using this protocol tobacco CAD was purified to homogeneity; from tissue; host or cells: stems of six week old tobacco plants) chain 1: MGSLDVEKSAIGWAARDPSGLLSPYTYTLRNTGPEDVQVKVLYCGLCHSDLHQVKNDLGMSNYPLVPGHEVVGKVVEVGADVSKFKVGDTVGVGLLVGSCRNCGPCKREIEQYCNKKIWNCNDVYTDGKPTQGGFANSMVVDQNFVVKIPEGMAPEQAAPLLCAGITVYSPFNHFGFNQSGFRGGILGLGGVGHMGVKIAKAMGHHVTVISSSNKKRQEALEHLGADDYLVSSDTDKMQEAADSLDYIIDTVPVGHPLELYLSLLKIDGKLILIGVINTPLQFISPMVMLGRKSITGSFIGSMKETEEMLDFCKEKGVTSQIEIVKMDYINTAMERLEKNDVSYRFVVDVAGSKLDQ chain 2: MGGLEVEKTTIGWAARDPSGVLSPYTYTLRNTGPEDVEVKVLYCGLCHTDLHQVKNDLGMSNYPLVPGHEVVGEVVEVGPDVSKFKVGDTVGVGLLVGSCRNCGPCKRDIEQYCNKKIWNCNDVYTDGKPTQGGFAKSMVVDQKFVVKIPEGMAPEQAAPLLCAGITVYSPLNHFGFKQSGLRGGILGLGGVGHMGVKIAKAMGHHVTVISSSNKKRQEALEHLGADDYLVSSDTDKMQEASDSLDYIIDTVPVGHPLEPYLSLLKIDGKLILMGVINTPLQFISPMVMLGRKSITGSFIGSMKETEEMLDFCKEKGVTSQIEIVKMDYINTAMERLEKNDVRYRFVVDVIGSKLDQ",Km,12 µM
